Legend:
[1] = target: dysferlin C2F domain (Rattus norvegicus); experiment: SPR; Biacore 3000, 25 °C; His6 fusion ligand amine-coupled on a CM5 chip (dysferlin C2 domain as ligand, partner as analyte, per Figure 2 'ligand:analyte'); analyte typically 0–320 nM, including reversal of ligand and analyte; 1:1 Langmuir model; Ca2+ level of the KD values of Table 1 not given
[2] = target: dysferlin canonical C2A domain, construct 3 (aa 19-134) (Rattus norvegicus); experiment: as above
[3] = target: annexin A2 (amino terminus) construct (rat); experiment: SPR; 0 added Ca2+; conditions: domain or fragment
[4] = target: annexin A2 (amino terminus) construct (rat); experiment: SPR; 100 uM Ca2+; conditions: domain or fragment
[5] = target: annexin A2 (amino terminus) construct (rat); experiment: SPR; without Ca2+; conditions: domain or fragment

dysferlin canonical C2A domain, construct 3 (aa 19-134) (Rattus norvegicus), sequence (Q9ESD7 other isoform, or with tags, fused parts or gaps): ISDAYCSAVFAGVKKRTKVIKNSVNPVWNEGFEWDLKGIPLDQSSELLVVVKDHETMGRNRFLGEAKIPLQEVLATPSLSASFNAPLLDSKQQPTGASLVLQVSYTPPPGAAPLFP
dysferlin C2F domain (Rattus norvegicus), sequence (Q9ESD7 1805-1953): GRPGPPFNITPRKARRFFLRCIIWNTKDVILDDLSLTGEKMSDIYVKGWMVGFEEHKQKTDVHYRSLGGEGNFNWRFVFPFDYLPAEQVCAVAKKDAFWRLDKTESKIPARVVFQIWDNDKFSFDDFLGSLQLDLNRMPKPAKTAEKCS
annexin A2 (amino terminus) construct (rat), sequence (Q07936 2-339): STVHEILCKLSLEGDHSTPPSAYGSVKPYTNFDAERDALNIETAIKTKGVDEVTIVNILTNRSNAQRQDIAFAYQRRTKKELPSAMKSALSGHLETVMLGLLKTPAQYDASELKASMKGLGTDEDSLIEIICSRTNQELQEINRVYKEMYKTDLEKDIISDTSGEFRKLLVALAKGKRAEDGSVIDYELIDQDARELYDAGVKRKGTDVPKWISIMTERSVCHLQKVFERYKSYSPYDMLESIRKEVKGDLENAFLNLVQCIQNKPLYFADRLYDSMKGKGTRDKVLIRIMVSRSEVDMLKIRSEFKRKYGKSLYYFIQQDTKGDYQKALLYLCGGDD
calpain-3 construct (domain or fragment), sequence (P16259 whole entry, the tested form may be a part): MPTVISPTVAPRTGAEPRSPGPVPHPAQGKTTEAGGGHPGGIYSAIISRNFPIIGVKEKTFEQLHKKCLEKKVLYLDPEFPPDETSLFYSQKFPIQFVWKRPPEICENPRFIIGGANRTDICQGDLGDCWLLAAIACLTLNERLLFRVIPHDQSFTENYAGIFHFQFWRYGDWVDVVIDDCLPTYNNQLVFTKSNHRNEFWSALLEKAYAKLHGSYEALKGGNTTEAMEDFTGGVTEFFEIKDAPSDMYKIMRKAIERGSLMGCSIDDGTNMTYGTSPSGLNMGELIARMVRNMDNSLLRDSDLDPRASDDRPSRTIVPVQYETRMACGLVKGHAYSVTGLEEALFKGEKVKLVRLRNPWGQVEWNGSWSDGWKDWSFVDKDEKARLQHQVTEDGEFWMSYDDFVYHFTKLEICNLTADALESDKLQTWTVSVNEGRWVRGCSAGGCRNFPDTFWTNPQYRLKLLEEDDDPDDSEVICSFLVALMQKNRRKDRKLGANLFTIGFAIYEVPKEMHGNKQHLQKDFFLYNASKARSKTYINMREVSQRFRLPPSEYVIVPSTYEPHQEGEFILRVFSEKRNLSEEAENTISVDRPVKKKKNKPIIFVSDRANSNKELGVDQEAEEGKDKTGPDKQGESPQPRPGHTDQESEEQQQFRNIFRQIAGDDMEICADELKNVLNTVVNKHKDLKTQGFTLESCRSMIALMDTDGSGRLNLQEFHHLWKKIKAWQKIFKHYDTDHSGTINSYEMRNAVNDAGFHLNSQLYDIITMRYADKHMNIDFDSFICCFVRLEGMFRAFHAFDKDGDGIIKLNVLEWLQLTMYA
syntaxin-4 construct (domain or fragment), sequence (Q08850 whole entry, the tested form may be a part): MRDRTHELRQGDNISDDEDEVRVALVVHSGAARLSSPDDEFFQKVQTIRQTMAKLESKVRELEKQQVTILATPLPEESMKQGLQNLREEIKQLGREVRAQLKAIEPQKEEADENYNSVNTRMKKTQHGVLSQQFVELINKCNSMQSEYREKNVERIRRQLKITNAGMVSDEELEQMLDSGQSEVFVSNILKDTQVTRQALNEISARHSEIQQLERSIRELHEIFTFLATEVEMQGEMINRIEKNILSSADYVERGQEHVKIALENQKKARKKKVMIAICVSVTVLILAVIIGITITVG
caveolin-3 construct (domain or fragment), sequence (P51638 whole entry, the tested form may be a part): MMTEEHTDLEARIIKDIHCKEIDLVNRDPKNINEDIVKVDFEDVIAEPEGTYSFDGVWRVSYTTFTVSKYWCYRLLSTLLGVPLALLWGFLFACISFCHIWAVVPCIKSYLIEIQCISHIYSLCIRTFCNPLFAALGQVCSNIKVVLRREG
annexin A1 construct (domain or fragment), sequence (P07150 2-346): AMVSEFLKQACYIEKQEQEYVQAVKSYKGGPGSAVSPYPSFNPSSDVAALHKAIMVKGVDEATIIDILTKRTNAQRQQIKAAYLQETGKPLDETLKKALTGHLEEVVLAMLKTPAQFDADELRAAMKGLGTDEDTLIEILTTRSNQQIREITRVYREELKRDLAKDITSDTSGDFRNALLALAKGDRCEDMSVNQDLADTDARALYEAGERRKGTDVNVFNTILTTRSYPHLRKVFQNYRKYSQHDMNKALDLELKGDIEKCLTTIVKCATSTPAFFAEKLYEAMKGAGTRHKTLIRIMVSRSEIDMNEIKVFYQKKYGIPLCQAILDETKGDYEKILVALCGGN
mitsugumin-53 construct (domain or fragment), sequence (A0JPQ4 whole entry, the tested form may be a part): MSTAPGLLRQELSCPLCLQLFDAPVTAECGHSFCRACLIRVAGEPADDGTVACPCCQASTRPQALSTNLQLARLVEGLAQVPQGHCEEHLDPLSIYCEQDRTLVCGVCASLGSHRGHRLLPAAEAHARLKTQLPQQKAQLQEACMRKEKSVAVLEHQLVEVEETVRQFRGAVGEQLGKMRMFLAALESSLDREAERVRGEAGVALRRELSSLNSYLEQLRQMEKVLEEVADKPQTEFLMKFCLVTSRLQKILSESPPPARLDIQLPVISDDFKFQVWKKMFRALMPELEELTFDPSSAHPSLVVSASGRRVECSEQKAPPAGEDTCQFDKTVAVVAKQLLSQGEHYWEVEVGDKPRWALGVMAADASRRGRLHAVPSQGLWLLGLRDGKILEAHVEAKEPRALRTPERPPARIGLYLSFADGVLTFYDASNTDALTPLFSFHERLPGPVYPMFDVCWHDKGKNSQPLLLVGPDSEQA

| Kd [1] | Kd [2] | further results | Substance |
| --- | --- | --- | --- |
| 110 nM | 33 nM | – | caveolin-3 construct (domain or fragment) |
| – | 380 nM | – | AHNAK1 construct, the final 500 amino acids (domain or fragment) |
| 400 nM | 41000 nM | – | affixin (beta-parvin) construct (domain or fragment) |
| – | – | Kd [3]: 190 nM | dysferlin canonical C2A domain, construct 3 (aa 19-134) |
| – | – | Kd [4]: 23.6 nM; Kd [5]: 101 nM | dysferlin canonical C2A domain, construct 1 (aa 1-152 plus 24 aa) |
| 330 nM | 25 nM | – | annexin A1 construct (domain or fragment) |
| 130 nM | 4400 nM | – | syntaxin-4 construct (domain or fragment) |
| – | 470 nM | – | mitsugumin-53 construct (domain or fragment) |
| 2.2 nM | 1200 nM | – | calpain-3 construct (domain or fragment) |

Source: paper PMC10002499
